Tests used:
[1] = target: T1, canine CD16A on dog peripheral blood leukocytes / PBMC (canine, UniProt E2RP87 1-249); experiment: flow cytometry on dog peripheral blood leukocytes (FIG. 4A)
T1 construct: Native protein on primary dog cells of various breeds
T1 sequence: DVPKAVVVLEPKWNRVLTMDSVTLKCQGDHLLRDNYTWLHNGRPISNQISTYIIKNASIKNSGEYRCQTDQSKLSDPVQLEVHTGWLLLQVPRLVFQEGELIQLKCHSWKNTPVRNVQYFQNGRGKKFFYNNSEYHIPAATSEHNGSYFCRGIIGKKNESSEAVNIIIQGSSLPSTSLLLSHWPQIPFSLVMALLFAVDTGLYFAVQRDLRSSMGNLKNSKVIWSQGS
Text: Flow cytometry was used to examine the expression patterns of CD16A and CD64 by dog peripheral blood leukocytes. The general leukocyte populations of polymorphonuclear cells (PMNs), monocytes, and lymphocytes were identified based on their characteristic forward and side light-scattering and by their expression of well characterized markers, including CD4 (neutrophils and lymphocyte), CD14 (monocytes), and CD5 (T cells) (FIG. 4A). The anti-canine CD16A clone 4A5 stained a subset of monocytes and lymphocytes, and for some dogs it marginally stained PMNs and/or a small subset of cells in this population (FIG. 4A). This staining pattern was consistent for all the anti-canine CD16 mAbs generated, which had distinct complementarity-determining region nucleotide sequences from 4A5. […]
For cell staining, nonspecific antibody binding sites were blocked for 30 min using 25% canine serum and 25% FBS in PBS buffer (without Ca⁺² and Mg⁺²) (Lonza Group AG, Basel, Switzerland) prior to their staining with antibodies. All cell staining was analyzed on a FACSCelesta instruments (BD Biosciences, Franklin Lakes, N.J.), as previously described (Snyder et al., Vet Immunol Immunopathol 231:110162, 2021). Briefly, for controls, fluorescence minus one was used as well as appropriate isotype-matched antibodies. […]

[2] = target: T2, recombinant intact canine CD64 with an N-terminus HA-tag, expressed on NK-92 cells (canine); experiment: flow cytometry on NK-92 cCD16A and NK-92 cCD64 cells (FIG. 3A)
T2 construct: also called NK-92 canine CD64 cells; NK-92 cCD64; not shown: N-terminal HA tag from the pDisplay cassette
T2 chain: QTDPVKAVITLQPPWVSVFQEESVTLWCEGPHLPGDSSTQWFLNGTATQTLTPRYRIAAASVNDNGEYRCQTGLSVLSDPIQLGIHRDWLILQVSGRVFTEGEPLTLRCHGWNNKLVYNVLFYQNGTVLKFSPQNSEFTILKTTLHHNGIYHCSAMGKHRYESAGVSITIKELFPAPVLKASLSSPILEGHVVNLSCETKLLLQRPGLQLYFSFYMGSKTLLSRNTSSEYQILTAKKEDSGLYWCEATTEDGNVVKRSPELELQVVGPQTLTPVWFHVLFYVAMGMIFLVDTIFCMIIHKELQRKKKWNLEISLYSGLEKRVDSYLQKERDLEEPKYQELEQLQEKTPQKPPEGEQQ

[3] = target: T3, B7-H3 on canine osteosarcoma OSCA78 cells (canine); experiment: flow cytometry on OSCA78 cells, 16 nM, experiment 2
T3 construct: whole, on cells

[4] = target: T3, B7-H3 on canine osteosarcoma OSCA78 …; experiment: flow cytometry on OSCA78 cells, 80 nM, experiment 1
[5] = target: T3, B7-H3 on canine osteosarcoma OSCA78 …; experiment: flow cytometry on OSCA78 cells, 400 nM, experiment 1
[6] = target: T3, B7-H3 on canine osteosarcoma OSCA78 …; experiment: flow cytometry on OSCA78 cells, 80 nM, experiment 2
[7] = target: T3, B7-H3 on canine osteosarcoma OSCA78 …; experiment: flow cytometry on OSCA78 cells, 2000 nM, experiment 1
[8] = target: T3, B7-H3 on canine osteosarcoma OSCA78 …; experiment: flow cytometry on OSCA78 cells, 400 nM, experiment 2
[9] = target: T1, canine CD16A on dog peripheral blood …; experiment: flow cytometry, FITC protein at 2000 nM, PBMC of dog Never
Experimental: (§1) To test the binding of the anti-CD16 domain, binding was evaluated on canine peripheral blood mononuclear cells (PBMC) that contained canine NK cells, T cells, B cells, and monocytes (Table 2). A single batch of 1615B7H3 TriKE (SEQ ID NO:56) was directly labeled with FITC fluorochrome and tested. The binding of the anti-CD16 fragment alone (anti-CD16-FITC) was tested as a positive control. Binding of an anti-B7H3 fragment alone (antiB7H3-FITC) was tested as a negative control.

[10] = target: T1, canine CD16A on dog peripheral blood …; experiment: flow cytometry, FITC protein at 80 nM, dog PBMC treated with IL-15 for 6 days
Experimental: as §1

[11] = target: T1, canine CD16A on dog peripheral blood …; experiment: flow cytometry, FITC protein at 400 nM, PBMC of dog Never
Experimental: as §1

[12] = target: T1, canine CD16A on dog peripheral blood …; experiment: flow cytometry, FITC protein at 400 nM, dog PBMC treated with IL-15 for 6 days
Experimental: as §1

[13] = target: T1, canine CD16A on dog peripheral blood …; experiment: flow cytometry, FITC protein at 80 nM, PBMC of dog Maverick
Experimental: as §1

[14] = target: T1, canine CD16A on dog peripheral blood …; experiment: flow cytometry, FITC protein at 400 nM, PBMC of dog Maverick
Experimental: as §1

[15] = target: T1, canine CD16A on dog peripheral blood …; experiment: flow cytometry, FITC protein at 2000 nM, PBMC of dog Maverick
Experimental: as §1

[16] = target: T1, canine CD16A on dog peripheral blood …; experiment: flow cytometry, FITC protein at 80 nM, PBMC of dog Never
Experimental: as §1

[17] = target: T1, canine CD16A on dog peripheral blood …; experiment: flow cytometry, FITC protein at 2000 nM, dog PBMC treated with IL-15 for 6 days
Experimental: as §1

B1: anti-canine CD16A mAb (clone 4A5) (antibody, IgG1)
VH: EVQLQQSGAELVRSGASVKLSCTASGFNIKDYYMHWVKQRPEQGLEWIGWLDPENGDTVYAPKFQGRATMTADTSSNTAYLHLSSLTSEDTAVYYCNALVYSLLGQDYWGQGTTLTVSSAKTTPPSVYPLAPGSAAQTNSMVTLGCLVKGYFPEPVTVTWNSGSLSSGVHTFPAVLQSDLYTLSSSVTVPSS
VL: QILLTQSPAIMSASPGEKVTMTCSASSSVGYMHWYQQKPGSSPKPWIYDTSDLASGFPARFSGSRSGTSYSLIISSMEAEDAATYYCHQRSFYPYTFGGGTKLEIKRADAAPTVSIFPPSSEQLTSGGASVVCFLNNFYPKDINVKWKIDGSERQNGVLNSWTDQDSKDSTYSMSSTLTLTK
notes: also called anti-CD16A mAb clone 4A5; anti-canine CD16 (clone 4A5)
- binding result [1]: binds
- binding result [2]: no binding

B2: anti-B7H3 antibody fragment alone (VHH)
VHH: QVQLVESGGGLVQPGGSLRLSCAASGFTFSSYWMYWVRQTPGKGLEWVSTINRDGSATWYADSVKGRFTISRDNAKNTGYLQMNSLKPDDTAVYYCVSDPDNYSSDEMVPYWGQGTQVTVSS
modifications: FITC-labelled in the PBMC assay (sites not given)
notes: The kind VHH is inferred from the single variable domain and the label 1615CAMB7H3; also called antiB7H3-FITC; anti-B7H3 fragment
- binding (flow cytometry read-out, unit not given) [3]: 2.8
- binding (flow cytometry read-out, unit not given) [4]: 64
- binding (flow cytometry read-out, unit not given) [5]: 98.8
- binding (flow cytometry read-out, unit not given) [6]: 42.1
- binding (flow cytometry read-out, unit not given) [7]: 99.8
- binding (flow cytometry read-out, unit not given) [8]: 93.7

B3: anti-canine CD16 antibody fragment alone (other)
VL: MEQILLTQSPAIMSASPGEKVTMTCSASSSVGYMHWYQQKPGSSPKPWIYDTSDLASGFPARFSGSRSGTSYSLIISSMEAEDAATYYCHQRSFYPYTFGGGTKLEIK
VH: EVQLQQSGAELVRSGASVKLSCTASGFNIKDYYMHWVKQRPEQGLEWIGWLDPENGDTVYAPKFQGRATMTADTSSNTAYLHLSSLTSEDTAVYYCNALVYSLLGQDYWGQGTTLTVSS
modifications: FITC-labelled in the PBMC assay (sites not given)
notes: also called anti-CD16; anti-CD16-FITC
- binding (flow cytometry read-out, unit not given) [9]: 23.8
- binding (flow cytometry read-out, unit not given) [10]: 6.2
- binding (flow cytometry read-out, unit not given) [11]: 8.8
- binding (flow cytometry read-out, unit not given) [12]: 15.3
- binding (flow cytometry read-out, unit not given) [13]: 10.1
- binding (flow cytometry read-out, unit not given) [14]: 26.5
- binding (flow cytometry read-out, unit not given) [15]: 43.6
- binding (flow cytometry read-out, unit not given) [16]: 3.7
- binding (flow cytometry read-out, unit not given) [17]: 35.8

Source: patent publication US20230227561A1 (REGENTS OF THE UNIVERSITY OF MINNESOTA, published 2023)
